Assay results from paper PMC6477179, “FIP200 Claw Domain Binding to p62 Promotes Autophagosome Formation at Ubiquitin Condensates” (Molecular Cell, 2019).

B3: GFP-FIP200 CTR aa 1429-1594 (domain or fragment, human, UniProt Q8TDY2 1429-1594, looked up)
chain: ADEGRVDSAMETSMMSVQENIHMLSEEKQRIMLLERTLQLKEEENKRLNQRLMSQSMSSVSSRHSEKIAIRDFQVGDLVLIILDERHDNYVLFTVSPTLYFLHSESLPALDLKPGEGASGASRRPWVLGKVMEKEYCQAKKAQNRFKVPLGTKFYRVKAVSWNKKV
notes: FIP200 (RB1CC1), human, C-terminal region, residues 1429-1594; source: E. coli Rosetta (DE3) pLysS, purified (HisTrap, TEV, SEC); not shown: His6, N-terminal, cleaved; GFP, N-terminal, kept

What was measured:
[1] = target: the molecule itself; assay: crystal structure; FIP200 Claw aa 1494-1594, SeMet crystal, 1.56 Å, space group C2221, one monomer in the asymmetric unit; 0.1 M HEPES pH 7.4, 2 M ammonium sulfate
mCherry-p62 LIRmut = target: T1, mCherry-p62 LIRmut (human, UniProt Q13501 1-440, residues 335-338 are mutated to Ala); assay: microscopy-based protein-protein interaction assay (bait on beads); GST-tagged bait on glutathione Sepharose 4B beads, 2-5 μM fluorescently labeled prey not washed away (equilibrium), 25 mM HEPES pH 7.5, 150 mM NaCl, 1 mM DTT, 30 min to 1 h at room temperature or 4°C; confocal or spinning disk microscopy; conditions: both partners purified
T1 construct: p62/SQSTM1, human, full length, LIR motif mutated; also called the LIR mutant; source: E. coli, purified as previously described (Wurzer et al., 2015)

mCherry-p62 wt [2] = target: T2, mCherry-p62 wt (human, UniProt Q13501 1-440); assay: as above; conditions: both partners purified
T2 construct: p62/SQSTM1, human, full length; also called full-length mCherry-p62 WT; source: E. coli, purified as previously described (Wurzer et al., 2015)

mCherry-p62 wt [3] = target: T2, mCherry-p62 wt; assay: microscopy-based protein-protein interaction assay (bait on beads); GSH beads coated with GST-2x ubiquitin, excess washed off, incubated with mCherry-p62 (2 μM) and GFP-FIP200 CTR (5 μM) for 1 h, imaged by microscopy; conditions: both partners purified
[4] = target: T3, GFP-FIP200 CTR aa 1458-1594 (human, UniProt Q8TDY2 1458-1594); assay: microscopy-based protein-protein interaction assay (bait on beads); GST-tagged bait on glutathione Sepharose 4B beads, 2-5 μM fluorescently labeled prey not washed away (equilibrium), 25 mM HEPES pH 7.5, 150 mM NaCl, 1 mM DTT, 30 min to 1 h at room temperature or 4°C; confocal or spinning disk microscopy; conditions: both partners purified
T3 construct: FIP200 (RB1CC1), human, C-terminal region, residues 1458-1594; also called GFP-FIP200 CTR WT; WT GFP-FIP200 CTR; source: E. coli Rosetta (DE3) pLysS, purified (HisTrap, TEV, SEC); not shown: His6, N-terminal, cleaved; GFP, N-terminal, kept

[5] = target: T4, FITC-labeled full-length FIP200 (FITC-FIP200-MBP) (human, UniProt Q8TDY2 1-1594, FITC-LPETGG peptide joined to the N-terminal glycine by Δ59SortaseA (FITC on the N-terminus)); assay: as above; conditions: both partners purified
T4 construct: FIP200 (RB1CC1), human, full length; pCAG vector; also called Gly-FIP200-MBP; source: HEK293-GnT1 suspension cells, purified (Glutathione Sepharose, TEV, amylose resin, Superose 6); not shown: GST, N-terminal, cleaved; MBP, C-terminal, kept

GFP-FIP200 CTR N1517F = target: T5, GFP-FIP200 CTR N1517F (human, UniProt Q8TDY2 1458-1594, N1517F); assay: as above; conditions: both partners purified
T5 construct: FIP200 (RB1CC1), human, C-terminal region, residues 1458-1594; source: E. coli Rosetta (DE3) pLysS, purified (HisTrap, TEV, SEC); not shown: His6, N-terminal, cleaved; GFP, N-terminal, kept

[6] = target: the molecule itself; assay: SEC with right-angle light scattering; 100 μl of 3 mg/ml FIP200 CTR on Superdex S75 10/300 with RALS-refractive index detector; 25 mM HEPES pH 7.5, 150 mM NaCl
[7] = target: B3; assay: microscopy-based protein-protein interaction assay (bait on beads); GST-tagged bait on glutathione Sepharose 4B beads, 2-5 μM fluorescently labeled prey not washed away (equilibrium), 25 mM HEPES pH 7.5, 150 mM NaCl, 1 mM DTT, 30 min to 1 h at room temperature or 4°C; confocal or spinning disk microscopy; conditions: both partners purified

B1: FIP200 Claw (aa 1494-1594) (domain or fragment, human, UniProt Q8TDY2 1494-1594, looked up)
chain: EKIAIRDFQVGDLVLIILDERHDNYVLFTVSPTLYFLHSESLPALDLKPGEGASGASRRPWVLGKVMEKEYCQAKKAQNRFKVPLGTKFYRVKAVSWNKKV
modifications: selenomethionine-substituted (crystal)
notes: FIP200 (RB1CC1), human, Claw domain, residues 1494-1594; one monomer in the asymmetric unit, dimer by a crystallographic 2-fold; also called isolated Claw domain; FIP200 Claw domain; source: E. coli BL21(DE3), purified (Ni-NTA, TEV, Superdex 75)
binding result [1]: binds

B2: GST-FIP200 CTR aa 1429-1594 (domain or fragment, human, UniProt Q8TDY2 1429-1594, looked up)
chain: ADEGRVDSAMETSMMSVQENIHMLSEEKQRIMLLERTLQLKEEENKRLNQRLMSQSMSSVSSRHSEKIAIRDFQVGDLVLIILDERHDNYVLFTVSPTLYFLHSESLPALDLKPGEGASGASRRPWVLGKVMEKEYCQAKKAQNRFKVPLGTKFYRVKAVSWNKKV
notes: FIP200 (RB1CC1), human, C-terminal region, residues 1429-1594; cloned in pGEX 4T1; also called FIP200 C-terminal region (CTR); source: E. coli Rosetta (DE3) pLysS, purified (GSTrap, SEC)
binding result (mCherry-p62 LIRmut): binds | binding result (mCherry-p62 wt [2]): binds

B3
binding result (mCherry-p62 wt [3]): binds

B4: GST-p62 FIR 3P (domain or fragment, human, UniProt Q13501 326-380, looked up)
chain: MESDNCSGGDDDWTHLSSKEVDPSTGELQSLQMPESEGPDDLDPDQEGPTGLKEA
notes: also called 3P (S365D, S366D, S370D); triple mutant; source: E. coli Rosetta (DE3) pLysS, purified (GSTrap, SEC)
binding result [4]: binds

B5: GST-p62 FIR 4P (domain or fragment, human, UniProt Q13501 326-380, looked up)
chain: MESDNCSGGDDDWTHLSSKEVDPDTGELQSLQMPESEGPDDLDPDQEGPTGLKEA
notes: also called 4P (S349D, S365D, S366D, S370D); quadruple mutant; source: E. coli Rosetta (DE3) pLysS, purified (GSTrap, SEC)
binding result [4]: binds | binding result [5]: binds | binding result (GFP-FIP200 CTR N1517F): binds

B6: FIP200 CTR (aa 1458-1594) (domain or fragment, human, UniProt Q8TDY2 1458-1594, looked up)
chain: RIMLLERTLQLKEEENKRLNQRLMSQSMSSVSSRHSEKIAIRDFQVGDLVLIILDERHDNYVLFTVSPTLYFLHSESLPALDLKPGEGASGASRRPWVLGKVMEKEYCQAKKAQNRFKVPLGTKFYRVKAVSWNKKV
notes: FIP200 (RB1CC1), human, C-terminal region, residues 1458-1594; source: E. coli Rosetta2 (DE3), purified (Ni-NTA, TEV, Superdex S75); not shown: His6, N-terminal, cleaved
stoichiometry N [6]: 2

B7: GST-p62 aa334-356 (domain or fragment, human, UniProt Q13501 334-356, looked up)
chain: GDDDWTHLSSKEVDPSTGELQSL
notes: p62/SQSTM1, human, residues 334-356; also called pGEX-p62 aa334-356; source: E. coli Rosetta (DE3) pLysS, purified (GSTrap, SEC)
binding result [7]: binds
